What was measured:
Conditions in all cases: EMSA: Pierce EMSA kit conditions, 15 min, 7.5% polyacrylamide gel at room temperature; footprinting: 20 mM Tris-HCl pH 7.5, 80 mM NaCl, 1 mM EDTA, 100 ug/ml …
Fis (Escherichia coli) = molecular target: T1, Fis (Escherichia coli) (UniProt P0A6R3); experiment: EMSA
T1 sequence: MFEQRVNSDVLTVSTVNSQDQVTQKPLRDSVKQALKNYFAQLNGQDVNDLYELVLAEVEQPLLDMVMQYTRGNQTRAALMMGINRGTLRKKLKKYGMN

Lrp [1] = molecular target: T2, Lrp (UniProt P0ACJ0); experiment: EMSA
T2 sequence: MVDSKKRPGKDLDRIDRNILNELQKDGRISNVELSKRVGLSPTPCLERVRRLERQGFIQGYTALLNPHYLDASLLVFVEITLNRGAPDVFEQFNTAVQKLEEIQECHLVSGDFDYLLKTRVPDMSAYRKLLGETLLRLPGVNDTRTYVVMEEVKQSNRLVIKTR

Lrp [2] = molecular target: T2, Lrp; experiment: competition EMSA

Sequence	binding (Fis (Escherichia coli))	binding (Lrp [1])	binding (Lrp [2])
CCACCTCATGCAATATAAACATCTATAAATAAAGATAACAATAGAATATTAAGGGGTTAGCTAAACTGAAAAAGTTTGTCCGCGATGCTTTCCTCTATGAGTCAAAATGGCCCCAAATGTTTCATCTTTTGGGGG (double strand) [fimS 135 bp probe, Fis site disrupted]	binds more weakly	binds more weakly	
CCCCCAAAAGATGAAACATTTGGGGCCATTTTGACTCATAGAGGAAAGCATCGCGGACAAACTTTTTCAGTTTATTTGTTGGCTTAATATTCTATTGTTATCTTTATTTATAGATGTTTATATTGCATGAGGTGG (double strand) [fimS 135 bp probe (wild type)]	binds	binds	binds
